Source: publication PMC7234810 (2020)

Key:
[1] = molecular target: H. polygyrus Binds Alarmin Receptor and Inhibits (HpBARI), N-terminal tagged (Heligmosomoides polygyrus); assay: SPR
[2] = molecular target: HpBARI expressed with C-terminal tags (Heligmosomoides polygyrus); assay: SPR

B1: Mouse IL-33-TRAP-Fc (a fusion protein of ST2 and IL-1RAcP with an Fc tag) (Fc fusion)
chain: SKSSWGLENEALIVRCPQRGRSTYPVEWYYSDTNESIPTQKRNRIFVSRDRLKFLPARVEDSGIYACVIRSPNLNKTGYLNVTIHKKPPSCNIPDYLMYSTVRGSDKNFKITCPTIDLYNWTAPVQWFKNCKALQEPRFRAHRSYLFIDNVTHDDEGDYTCQFTHAENGTNYIVTATRSFTVEEKGFSMFPVITNPPYNHTMEVEIGKPASIACSACFGKGSHFLADVLWQINKTVVGNFGEARIQEEEGRNESSSNDMDCLTSVLRITGVTEKDLSLEYDCLALNLHGMIRHTIRLRRKQPIDHRSERCDDWGLDTMRQIQVFEDEPARIKCPLFEHFLKYNYSTAHSSGLTLIWYWTRQDRDLEEPINFRLPENRISKEKDVLWFRPTLLNDTGNYTCMLRNTTYCSKVAFPLEVVQKDSCFNSAMRFPVHKMYIEHGIHKITCPNVDGYFPSSVKPSVTWYKGCTEIVDFHNVLPEGMNLSFFIPLVSNNGNYTCVVTYPENGRLFHLTRTVTVKVVGSPKDALPPQIYSPNDRVVYEKEPGEELVIPCKVYFSFIMDSHNEVWWTIDGKKPDDVTVDITINESVSYSSTEDETRTQILSIKKVTPEDLRRNYVCHARNTKGEAEQAAKVKQKVIPPRYTVELACGFGAT
- koff [1]: ~0.04 s⁻¹
- koff [2]: ~0.13 s⁻¹
